Results from patent US20260374888 (published 2026).

Legend:
mouse CD40 = biological target: T1, mouse CD40 (mouse, UniProt P27512); test: other, cells transiently overexpressing target
T1 chain: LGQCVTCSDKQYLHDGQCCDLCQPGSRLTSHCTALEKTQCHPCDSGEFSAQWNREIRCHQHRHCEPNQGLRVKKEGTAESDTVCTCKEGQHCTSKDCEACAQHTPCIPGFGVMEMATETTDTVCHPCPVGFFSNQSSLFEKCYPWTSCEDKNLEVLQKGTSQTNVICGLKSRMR

mouse 4-1BB = biological target: T2, mouse 4-1BB (mouse, UniProt P20334); test: other, cells transiently overexpressing target
T2 chain: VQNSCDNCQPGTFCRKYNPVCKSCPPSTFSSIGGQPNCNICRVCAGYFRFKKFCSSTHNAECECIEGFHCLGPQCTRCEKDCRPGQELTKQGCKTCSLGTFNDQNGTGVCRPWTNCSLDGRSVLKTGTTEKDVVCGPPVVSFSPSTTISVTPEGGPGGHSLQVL

B1: GEN1042 (CD40 arm) (antibody, V domains shown)
VH: EVQLVQSGAEVKKPGASVKVSCKTSGYTFTEYIMHWVRQAPGQGLEWMGGIIPNNGGTSYNQKFQGRVTMTVDKSTSTGYMELSSLRSEDTAVYYCTRREVYGRNYYALDYWGQGTLVTVSS
VL: DIQMTQSPSSLSASVGDRVTITCSASQGINNYLNWYQQKPGKAVKLLIYYTSSLHSGVPSRFSGSGSGTDYTFTISSLQPEDIATYYCQQYSNLPYTFGGGTKVEIK
B1: no binding (mouse CD40).

B2: GEN1042 (CD137 arm) (antibody, V domains shown)
VH: EVQLVESGGGLVQPGRSLRLSCTASGFSLNDYWMSWVRQAPGKGLEWVGYIDVGGSLYYAASVKGRFTISRDDSKSIAYLQMNSLKTEDTAVYYCARGGLTYGFDLWGQGTLVTVSS
VL: DIVMTQSPSSLSASVGDRVTITCQASEDISSYLAWYQQKPGKAPKRLIYGASDLASGVPSRFSASGSGTDYTFTISSLQPEDIATYYCHYYATISGLGVAFGGGTKVEIK
B2: no binding (mouse 4-1BB).
